Laboratory results published in doi:10.1101/2024.10.21.619419 (bioRxiv, 2024).

Target: the molecule itself
Assay: SEC

B1: Bxb1 residues 2-500 (enzyme, Mycobacteriophage Bxb1, UniProt Q9B086 2-500, looked up)
chain: RALVVIRLSRVTDATTSPERQLESCQQLCAQRGWDVVGVAEDLDVSGAVDPFDRKRRPNLARWLAFEEQPFDVIVAYRVDRLTRSIRHLQQLVHWAEDHKKLVVSATEAHFDTTTPFAAVVIALMGTVAQMELEAIKERNRSAAHFNIRAGKYRGSLPPWGYLPTRVDGEWRLVPDPVQRERILEVYHRVVDNHEPLHLVAHDLNRRGVLSPKDYFAQLQGREPQGREWSATALKRSMISEAMLGYATLNGKTVRDDDGAPLVRAEPILTREQLEALRAELVKTSRAKPAVSTPSLLLRVLFCAVCGEPAYKFAGGGRKHPRYRCRSMGFPKHCGNGTVAMAEWDAFCEEQVLDLLGDAERLEKVWVAGSDSAVELAEVNAELVDLTSLIGSPAYRAGSPQREALDARIAALAARQEELEGLEARPSGWEWRETGQRFGDWWREQDTAAKNTWLRSMNVRLTFDVRGGLTRTIDFGDLQEYEQHLRLGSVVERLHTGMS
  stoichiometry N: 2
